According to article doi:10.1101/2022.08.26.505460:

Target: FN3^WDR5-cpYFP fusion protein

Work on “WD40-repeat protein 5 (WDR5) (from UniProt P61964 31-334) (natural protein)” yielded a Kd of 727 nM.
